Measured values published in PMC9890960, “Exploiting photosynthesis-driven P450 activity to produce indican in tobacco chloroplasts” (Frontiers in Plant Science, 2023).

T1: IsiB^6803 (Synechocystis sp. PCC 6803, UniProt P27319)
T1 construct: gene from colony PCR, pET14b, E. coli BL21(DE3), HisTrap purified; apoprotein for ITC
T1 sequence (P27319 1-170): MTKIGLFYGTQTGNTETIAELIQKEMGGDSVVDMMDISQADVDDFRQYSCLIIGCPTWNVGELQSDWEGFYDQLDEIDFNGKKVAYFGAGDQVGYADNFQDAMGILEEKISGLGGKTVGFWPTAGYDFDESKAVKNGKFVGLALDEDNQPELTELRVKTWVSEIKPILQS

T2: HsCPR^62-241 (Homo sapiens, UniProt P16435)
T2 construct: gene POR; soluble flavodoxin-like (FMN) domain, residues 62-241, pET14b, E. coli BL21(DE3), HisTrap purified; apoprotein for ITC
T2 sequence (P16435 62-241): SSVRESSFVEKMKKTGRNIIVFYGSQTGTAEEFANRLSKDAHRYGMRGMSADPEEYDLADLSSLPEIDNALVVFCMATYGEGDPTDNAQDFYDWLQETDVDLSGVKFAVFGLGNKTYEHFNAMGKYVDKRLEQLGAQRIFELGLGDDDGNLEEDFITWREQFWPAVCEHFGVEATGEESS

T3: CYP2A6 (Homo sapiens, UniProt P11509)
T3 construct: N-terminal Arabidopsis Fd2 transit peptide fusion; transient expression in Nicotiana benthamiana chloroplasts; amplified from E. coli expression construct
T3 sequence (P11509 1-494): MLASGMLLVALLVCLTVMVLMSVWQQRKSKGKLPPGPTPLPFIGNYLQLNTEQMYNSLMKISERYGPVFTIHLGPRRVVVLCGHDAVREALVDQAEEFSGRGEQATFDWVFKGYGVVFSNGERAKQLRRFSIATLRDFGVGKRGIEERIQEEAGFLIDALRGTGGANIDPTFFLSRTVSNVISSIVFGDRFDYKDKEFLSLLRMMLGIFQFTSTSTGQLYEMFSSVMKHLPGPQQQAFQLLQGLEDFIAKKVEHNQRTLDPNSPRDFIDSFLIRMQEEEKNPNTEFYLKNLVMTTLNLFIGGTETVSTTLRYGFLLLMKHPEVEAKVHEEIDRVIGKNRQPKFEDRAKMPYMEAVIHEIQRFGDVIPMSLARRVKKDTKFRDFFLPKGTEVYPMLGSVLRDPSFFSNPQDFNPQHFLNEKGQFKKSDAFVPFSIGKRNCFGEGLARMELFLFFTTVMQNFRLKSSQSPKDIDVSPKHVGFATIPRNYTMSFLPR

T4: spinach FNR (spinach) (UniProt P00455)
T4 sequence: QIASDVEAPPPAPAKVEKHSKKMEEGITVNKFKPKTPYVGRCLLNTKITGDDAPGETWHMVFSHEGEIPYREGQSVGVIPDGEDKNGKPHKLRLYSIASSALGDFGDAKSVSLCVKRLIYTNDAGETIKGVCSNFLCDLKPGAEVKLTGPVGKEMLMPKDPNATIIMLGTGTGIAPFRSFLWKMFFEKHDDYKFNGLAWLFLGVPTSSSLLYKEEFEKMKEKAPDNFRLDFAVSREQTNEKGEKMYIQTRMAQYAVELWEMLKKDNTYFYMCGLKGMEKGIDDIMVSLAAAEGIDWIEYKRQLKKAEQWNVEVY


What was measured:
[1] = target: T1, IsiB^6803; assay: isothermal titration calorimetry; format: binding; conditions: read-out: affinities
[2] = target: T2, HsCPR^62-241; assay: isothermal titration calorimetry; format: binding; conditions: read-out: affinities
[3] = target: T5, CYP2E1 (Homo sapiens, UniProt P05181); assay: indican formation in infiltrated N. benthamiana leaves, LC-MS; conditions: co-expressed with tnaA; chloroplast-targeted; product glucosylated to indican
T5 construct: N-terminal Arabidopsis Fd2 transit peptide fusion; transient expression in Nicotiana benthamiana chloroplasts; amplified from E. coli expression construct

[4] = target: T3, CYP2A6; assay: as above; conditions: co-expressed with tnaA; chloroplast-targeted; product glucosylated to indican
[5] = target: T6, tnaA (Escherichia coli, UniProt P0A853); assay: indole accumulation in infiltrated N. benthamiana leaves, UPLC-UV; parameters: species or system Nicotiana benthamiana leaves; conditions: chloroplast-targeted; endogenous tryptophan
T6 construct: synthetic gene, N-terminal chloroplast transit peptide (Arabidopsis Fd2); transient expression in Nicotiana benthamiana chloroplasts

[6] = target: T4, spinach FNR (spinach)
[7] = target: T4, spinach FNR (spinach); remark: listed apart in the source

AtFd1, sequence (O04090 53-148): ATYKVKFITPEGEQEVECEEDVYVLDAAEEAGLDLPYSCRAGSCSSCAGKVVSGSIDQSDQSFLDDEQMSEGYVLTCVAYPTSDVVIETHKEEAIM
T5 sequence (P05181 whole entry, the tested form may be a part): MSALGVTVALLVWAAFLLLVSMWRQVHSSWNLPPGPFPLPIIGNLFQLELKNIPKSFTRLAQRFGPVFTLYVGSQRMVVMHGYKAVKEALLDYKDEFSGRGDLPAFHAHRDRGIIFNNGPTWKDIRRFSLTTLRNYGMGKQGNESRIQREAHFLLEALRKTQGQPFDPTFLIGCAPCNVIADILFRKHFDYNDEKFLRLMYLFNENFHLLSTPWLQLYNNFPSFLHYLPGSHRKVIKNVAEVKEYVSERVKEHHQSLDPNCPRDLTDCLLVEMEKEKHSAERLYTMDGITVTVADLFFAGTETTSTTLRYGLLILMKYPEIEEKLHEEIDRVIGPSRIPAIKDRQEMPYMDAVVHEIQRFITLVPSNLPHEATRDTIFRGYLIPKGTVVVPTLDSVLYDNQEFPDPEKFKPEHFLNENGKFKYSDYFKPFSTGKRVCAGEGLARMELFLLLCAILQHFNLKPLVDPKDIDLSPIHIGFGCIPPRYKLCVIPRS
T6 sequence (P0A853 whole entry): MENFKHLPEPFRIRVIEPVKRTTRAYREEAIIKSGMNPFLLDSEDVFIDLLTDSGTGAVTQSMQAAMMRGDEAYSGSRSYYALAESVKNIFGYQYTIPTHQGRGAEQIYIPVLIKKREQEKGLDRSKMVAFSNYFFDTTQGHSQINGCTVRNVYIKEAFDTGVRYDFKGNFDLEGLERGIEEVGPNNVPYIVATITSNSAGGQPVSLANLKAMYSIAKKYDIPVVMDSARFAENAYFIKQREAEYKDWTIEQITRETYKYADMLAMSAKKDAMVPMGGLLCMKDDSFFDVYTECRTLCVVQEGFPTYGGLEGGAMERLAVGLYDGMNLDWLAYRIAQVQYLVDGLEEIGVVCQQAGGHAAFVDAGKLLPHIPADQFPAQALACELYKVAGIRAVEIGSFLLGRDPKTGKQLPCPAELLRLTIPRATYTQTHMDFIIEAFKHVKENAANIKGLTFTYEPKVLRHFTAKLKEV

Molecule | KM of the electron carrier in NADPH-dependent reduction by FNR (40 nM spinach FNR, carrier 1-100 µM, read by cytochrome c reduction, Michaelis-Menten fit) [6] [µM] | Vmax of NADPH-dependent reduction of the electron carrier by FNR (40 nM spinach FNR, carrier 1-100 µM, read by cytochrome c reduction, Michaelis-Menten fit) (µmol cyt c µmol FNR^-1 s^-1) [6] | Vmax/KM of NADPH-dependent reduction of the electron carrier by FNR [7] | further results
Cc1cc2nc3c(=O)[nH]c(=O)nc-3n(C[C@H](O)[C@H](O)[C@H](O)COP(=O)(O)O)c2cc1C [FMN] | – | – | – | Kd [1]: 2 nM; Kd [2]: 25.7 nM
c1ccc2[nH]ccc2c1 [indole] | – | – | – | indican formation in infiltrated N. benthamiana leaves, LC-MS [3]: accumulation was considerably higher when any P450 was co-expressed with tnaA; indican formation in infiltrated N. benthamiana leaves, LC-MS [4]: accumulation was considerably higher when any P450 was co-expressed with tnaA
N[C@@H](Cc1c[nH]c2ccccc12)C(=O)O [tryptophan] | – | – | – | indole accumulation in infiltrated N. benthamiana leaves, UPLC-UV [5]: Expression of tnaA alone led to detectable indole accumulation in leaf samples
AtFd1 (from UniProt O04090 53-148) (natural protein) | 21.7 | 118 | 5.4 | decrease of light-driven coumarin 7-hydroxylation by CYP2A B49 in thylakoids (10 µM redox partner) on adding 0.6 µM FNR and 1.6 mM NADP+ [7]: 80%
HsCPR^62-241 (domain or fragment) SSVRESSFVEKMKKTGRNIIVFYGSQTGTAEEFANRLSKDAHRYGMRGMSADPEEYDLADLSSLPEIDNALVVFCMATYGEGDPTDNAQDFYDWLQETDVDLSGVKFAVFGLGNKTYEHFNAMGKYVDKRLEQLGAQRIFELGLGDDDGNLEEDFITWREQFWPAVCEHFGVEATGEESS | 9.2 | 125 | 13.6 | –
IsiB^6803 (natural protein) MTKIGLFYGTQTGNTETIAELIQKEMGGDSVVDMMDISQADVDDFRQYSCLIIGCPTWNVGELQSDWEGFYDQLDEIDFNGKKVAYFGAGDQVGYADNFQDAMGILEEKISGLGGKTVGFWPTAGYDFDESKAVKNGKFVGLALDEDNQPELTELRVKTWVSEIKPILQS | 17.7 | 10 | – | –
